# Measured values taken from the nanobody polyreactivity screen of Harvey et al. (2022).
# Test: yeast display, Sf9 membrane polyspecificity reagent, FACS + sequencing; frameworks hold sequencing errors
# Outline: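 Using colony PCR, genes from sorted yeast display clones were amplified, then sequenced on MiSeq at 2 × 250 and filtered by CDR length. The clones had been stained with 10% biotinylated, detergent-solubilized Sf9 membrane reagent for 1 hour at 4 °C and sorted by FACS into low and high (top ~1%) gates on anti-HA and streptavidin fluorescence. Polyreactivity labels come from the gate of origin.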
row,Sequence,polyreactivity (PSR sort gate)
1,QVQLVESGGGLVQAGGSLRLSCAASGSTFPWNAMGWYRQAPGKERELVAAINYGNGSTYYADSVKGRFTISRDNAKNTVYLQMNSLKPVDTAVYYCNADFTGTRSDSVTPEYEYWGQGTQVTVSS,low polyreactivity
2,QVQLVESGGGLVQAGGSLRLSCAASGRIFDWYVMGWYRQAPGKERELVAAINSGVSTKYADSVKGRFTISRDNAKNTVYLQMNSLKPEDTAVYYCAAQSFSDYRRTGRKSSYYYWGQGTQVTVSS,low polyreactivity
3,QVQLVESGGGLVQAGGSLRLSCAASGTTFPIYAMGWYRQAPGKERELVADITSTGSTDYADSVKGRFTISRDNAKNTVYLQMNSLKPEDTAVYYCAAAWKAYRRYGYWGQGTQVTVSS,high polyreactivity
4,QVQLVESGGGLVQAGGSLRLSCAASGSTFWFYAMGWYRQAPGKERELVAAITRGGSTYYADSVKGRFSISRDNAKNTVYLQMNSLKPEDTAVYYCAAEVGWSRYKWLEYWGQGTQVTVSS,low polyreactivity
5,QVQLVESGGGLVQAGGSLRLSCAASGSIFVLYAMGWYRQAPGKERELVAAITASGGSTHYADSVKGRFTISRDNAKNTVYLQMNSLKPEDTAVYYCNADVYTEYDYWGQGTQVTVSS,low polyreactivity
6,QVQLVESGGGLVQAGGSLRISCAASGSIFVYYGMGWYRQAPGKERELVAAISSGGSTHYADSVKGRFTISRDNAKNTVYLQMNSLKPEDTAVYYCAAERFFWLRSYPRYYYWGQGTQVTVSS,low polyreactivity
7,QVQLVESAGGLVQAGGSLRLSCAASGNTFANYAMGWDRQAPGKERELVAAITRGGSTFYADSVKGRFTISRDNAKNTVYLQMNSLKPEDSAVYYCAKGYGTNTRYYHRYRYDYWGQGTQVTVSS,high polyreactivity
8,QVQLVESGGGLVQAGGSLRLSCDASGFIFDHNAMGWYRQAPGKERELVAAISWGYGSTYYADSVKGRFTISRDNAKNTVYLQMNRLKTEDTAVYYCAARAVRYYAWVRGGCTSFDYWGQGTQVTVSS,high polyreactivity
9,QVQLVESGGGLVQAGGSLRISCAASGIIFRLNAMGWYRQAPGKERELVAAIRRRGGSTYYADSVKGRFTISRDNAKNTVYLQMNSLKPEDTAVYYCAKDPHGSDFGYWGQGTQVTVSS,low polyreactivity
10,QVQLVESGGGLVQAGGSLRLSCAASGRNFRYYAMGWYRPAPGKERELVAAISGSGGSTYYADSVKGRFTISRDNAKNTVYLQMNSLKPEDTAVYYCNARYRIPSGEGDHWGQGTQVTVSS,low polyreactivity
11,QVQLVESGGGLVQAGGSLRLSCAASGIIFKEYAMGGYRPAPGKERELVAAISGRGGSTYYADSVKGRFSISRDNAKNTVYLQMSSLKPEDTAVYYCNAVASWQRYDYWGQGTQVTVSS,high polyreactivity
12,QVQLVESGGGLVQAGGSLRLSCAASGSTFGSYAMGWYRQAPGKERELVADISSRGASTYYADSVKGRFTISRDNAKNTVYFQMNSLKPEDTAVYYCARDVYIWYGYGYFPEYEYWGQGTQVTVSS,low polyreactivity
13,QVQLVESGGGLVQAGGSLRLSCAASGRIFFENTMGWYRQAPGKERELVAAISSSGTTNYADSVKGRFTISRDNAKNTVYLQMNSLKPEDTAVYYCNAVLHGEQVGKYIAYVYWGQGTQVTVAS,low polyreactivity
14,QVQLVESGGGLVQAGGSLRLSCAASGSTFRDYAMGWYRQAPGKERELVAAISNSGGRTYYADSVKGRFTISRDNAKNTVYLQMNSLKPEDTAVYYCNAGRQTKWGQGTQVTVSS,high polyreactivity
15,QVQLVESGGGLVQAGGSLRLSCDASGLIFVDNAMGWYRQAPGKERELVAAIDSGGSTNYADSVKGRFTISRDNAKNTVYLQMNSLKPEDTAVYYCAANTYYWWGIMDYWGPGTQVTVSS,low polyreactivity
16,QVQLVESGGGLVQAGGSLRLSCAASGFTFVYYAMGWYRQAPGKERELVAAISRGGSTYYADSVKGRFTISRDNAKNTVYLQMNSLKPEDTAVYYCNAKKSGHYVSYPAYDYWGQGTQVTVSS,low polyreactivity
17,QVQLVESGGGLVQAGGSLRLSCAASGSTFRLYAMGWYRQAPGKERELVAAISSRGGTTYYADSVKGRFTISRDNAKNTVYLQMNSLKPEDTAVYYCAAPRASQYGDDYWGHGTQVTVSS,high polyreactivity
18,QGQLVESGRGLVQAGGSLRLSSAASGSTFFANAMGWYRQAPGKERELVAAIDKRGGRTYYADSVKGRFTISRDNAKNTVYLQMNSLKPEDTAVYYCNAVANYRLKYDYWGQGTQVTVSS,high polyreactivity
19,QVQLVESGAGLVQAGGSLRLSCAASGSTFKRYAMGWYRQAPGKERELVAAITWRGGSTYYADSVKGRFTISRDNAKNTVYLQMNSLKPEDTAVYYSATDYVYRYDYWGQGTQVTVSS,high polyreactivity
20,QVQLVESGGGLVQAGGSLRLSCAASGSNIYPNAMGWYRQEPGKEREFVAVISSGGSTYYADSVKGRFTISRDNAKNTVYLQMNSMKPEDTAVYYCAADRGTVSFLYSPRAVDYWGQGTQVTVSS,low polyreactivity
21,QVQLEESGGGLVQAGGSLRLTCAASGRNFTYYAMGWSIQAPGNEREIVAAISSSGGSTSYADSVKGRFTISRDNAKNTVYLQMNSLKPEDTAVYYCAAVTRDYGSRSGLDYWGQGTQVTVSS,high polyreactivity
22,QVQLVESGGGLVQAGGSLRLSCAASGSIFTDYAMGWYRQAPGKERELVAAITSSGGSTYYADSVKGRFTISRDNAKNTVYLQMNSLKPEDTAVYYCDADRITIYDYWGQGTQVTVSS,low polyreactivity

row,Sequence,polyreactivity (PSR sort gate)
1,QVQLVESGGGLVQAGGSLRLSCAASGRILGRNAMGRYRQAPGKEREFVAGISYSGTSTYYADSVKGRFTISRDNAKNTVYLQMNSLKPEDTAVYYCAARSTWFQIRYGYWGQGTQVTVSS,high polyreactivity
2,QVQLVESVGGLVQAGGSLRLSCAASGITFLQYAMGWYIQAPGKERELVATINSGGSTNYADSVKGRFTISRDNAKNTVYLQMNSLKPEDTAVYYCAADYGSDYTKGDYWGQGTQVTVSS,low polyreactivity
3,QVQLVESGGGLVQAGGSLRLSCAASGSIFSSNAMGWYRQPPGKERELVAAITSGGSTYYADSVKGRFTISRDNAKNTVYLQMNSLKPEDTAVYYCAASYWGFQRMYYWGQGTQVTVSS,high polyreactivity
4,QVQLVESGGGLVQAGGSLRLSCASSGTIFKYSAMGWYIQAPGKEREFVAGISWSGGRTYYADSVKGRFTISRDNAKITVYLHMNSLKPEDTAVYYCARVRLTSYGYYSWGQGTQVTVSS,high polyreactivity
5,QVQLVESGGGLVQAGGSLRLSCAASGFIFLNYAMGWYRQAPGKERELVAAITSGGNTTYADSVKGRFTISRDNAKNTVYLQMNSLKPEDTAVYYCAADGWRAGPGDYWGQGTQVIVSS,low polyreactivity
6,QVQIEESGGRLVQAGGILRLSCAASGRPFNVNFKGWNRQAPGKEWELVAAIRYTGGSTYADSVKGRFTISRDNAKNTVYLQMNSLKPEDTAVYYCNADTVFPFDHGMDYWGQGTQVTVSS,low polyreactivity
7,QVQLVESGGGLVQAGGSLRLSCAASGFIFAYYAMGWYRQAPGKERELVARITRGGRTYYADSVKGRFTISRDNAKNTVYLQMNSLKPEDTAVYYCATTGSSYFHSFEYDYWGQGTQVTVSS,low polyreactivity
8,QVQLVESGGGLVQAGGSLRLSCAASGFIFGGYAMGWYRQAPGKERELVAAISWSGDNTYYADSVKGRFTISRDNAKNTVYLQMNSLKPEDTAVYYCAADSYGQEYDYWGQGTQVTVSS,low polyreactivity
9,QVQLVESGGCLVQAGGSLRLSCAASGRIFRTYTMGWYRQAPGKERELVAAITWNGGSTYYADSVKGRFTISRDNAKNTVYLQMNSLKPEDTAVYYCIADRHYSAYPLYDYWGQGTQVTVSS,low polyreactivity
10,QVQLVESGGGLVQAGGSLRLSCAASGRNFRKYAMGWYRQAPGKERELVAAITSSGGSTYYADSVKGRFTISRDNAKNTVYLQMNSLKPVDTAVYYCAAQKRGSPGYRRDYWGQGTQVTVSS,high polyreactivity
11,QVQLVESGGGLVQAGGSLRLSCAASGFIFQVYAMGWYRQAPGKERELVAAISDDGSTNYADSVKGRFTISRDNAKYTVYLQMNSLKPEDTAVYYCAKESWGRLYYRYDYWGQGTQVTVSS,low polyreactivity
12,QFQLVESGGGLVQAGGSLRLSCAASGSIFKYNAMGWYRQAPGKEREFVAAISSSSGNTYYADSVKGRFTISRDNAKNTLYFQMNSLKPEDTAVYYCAADASRPRIPEMYYWGQGTQVTVSS,high polyreactivity
13,QVQLVESGGGLVQAGGSLRLSCAASGRTFLHNAMGWYRQAPGKERELVAAITWSGGSTYYADSVKGRFTISRDNAKNTVYLQMNSLKPEDTAVYYCNARHRYYRYGYWGQGTQVTVSS,high polyreactivity
14,QVQLVESGGGLVQAGGSLRLSCAASGFILYSYAMGWYRQAPGKERELVAAINSTGSTYYADSVKGRFTISRDNAKNTVYLQMNSLKPEDTAVYYCATDPWYQTDHSYDTPYYYWGQGTQVTVSS,low polyreactivity
15,QVQLEESGGGLVQAGGSLRLSCAASGSTFWLNAMGWYRQAPGKESELVASITWSGDSTYYADSVKGRFTISRDNAKNTVYLQMNSLKPEDTAVYYCNTDSILGQIWGATDDYWGQGTQVTVSS,low polyreactivity
16,QVQLVESGGGLVQAGASLRLSCAASGFTLYSYAMGWYRQAPGKERELDASISTGGSTYYADSVKGRFTISRDNAKNTVYLQMNSLKPVDTAVYYSAVDGWYYTSWSFYRRYEYWGQGTQVSVSS,high polyreactivity
17,QVQLVESGGGLVQAGGSLRLSCAASGIIFYPYAMGWYSLAPGKERELVAAISQSGGTTSYADSVKGRFTISRDNAKNTVYLQMNSLKPEDTAVYYCARRVSTRKRYYYWGQGTQVTVSS,high polyreactivity
18,QVQLVESGGGLVQAGGSLRLRCAASGSIFFFYAMGWYSQARGKEREFVAGITYSGGITYYADSVKGRFTISRDNAKNTDYLQMNSLKPEDTAVYFCDYGGGVYQYGYWGQGTQVTVSS,low polyreactivity
19,QVQLVESGGGLVQAAGSLRLSCAASGLTFFGYAMGWYRQAPGKERELVAAISSSGTRTYYADSVKGRFTISRDHAKNTVYLQMNSLKPEDTAFYYCASGRYQEYDYWGQGTQVTVSS,high polyreactivity
20,QVQQQESGGGLVQAGVSLRLSWAASGTIFQLTVMGRYRQAPGKEREVVASIDYGGNTNYADSVKGRFTISRDNAKNTVYRQMNSLKPEDTAVYYCAASSDSSTTHPYWGQGTHVTVSS,low polyreactivity
21,QVQLVESGGGLVQAGGSLRISCAASGGTFRPNAKGWSRQAPGKERELVAAITRSGGSTYYADSVKGRFTISRDNAKNTVYLQRNSLKPEETAVYYCARDLREWGQGTQVTVSS,low polyreactivity
